# Source: US20220025029A1 (Regeneron, published 2022)
# Substitutions are numbered along the chain they refer to. Numbers in names are those of the source.
# B1: H1M1234N (antibody, V domains shown)
# VH: QVQLQQSGPGLVKSSQTLSLTCAISGDSVSSNSVAWNWIRQSPSRGLEWLGRTYYRSKWYNDYAVSVKSRININPDTSKNHFSLQLNSVTPEDTAVYFCARAWNWYYLDYWGQGTLVTVSS
# VL: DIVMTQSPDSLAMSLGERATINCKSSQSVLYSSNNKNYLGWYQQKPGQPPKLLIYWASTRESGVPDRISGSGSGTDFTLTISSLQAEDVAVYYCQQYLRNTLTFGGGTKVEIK
# notes: chimeric: human variable domains, mouse constant domains (H1M prefix, mouse Fc)
# B2: H1M1241N (antibody, V domains shown)
# VH: EVQLVESGGGLVKPGGSLRLSCAASGFTFSSYSMNWVRQAPGKGLEWVSSISSRSSYIYYADSVKGRFTISRDNAKNSLYLQMNSLRAEDTAVYYCARDHIVVVPGASYYYYGMDVWGQGTTVTVSS
# VL: DIQMTQSPSSLSASVGDRVTITCRASQGIRNDLGWYQQKPGKAPKRLISAASSLQSGVPSRFSGSGSGTEFTLTISSLQPEDFATYYCLQHNSYPLTFGGGTKVEIK
# notes: as for B1
# B3: H2M1236N (antibody, mouse IgG2, V domains shown)
# VH: QVQLQESGPGLVKPSETLSLTCTVSGGSISNYYWSWIRQPPGKGLEWIGYIYYSGRTNYNPSLKSRVTISVDTSKNQFSLKLRSVTAADTAVYYCARHRITRTADSFDYWGQGTLVTVSS
# VL: DIQMTQSPSSLSASVGDRVTITCQASQDITNYLNWYQQKPGKAPKLLIYDASNLETGVPSRFSGSGSGTDFTFTISSLQPEDVATFYCHQYGDLPYTFGQGTKLEIK
# notes: chimeric: human variable domains, mouse IgG2 Fc (H2M prefix)
# B4: H1M1230N (antibody, V domains shown)
# VH: EVQLVESGGGLVQPGGSLRLSCTASGFIFSNFWMTWVRQAPGKGLEWVANIKQDGSETYCVDSVKGRFTISRDHAKNSLFLQMNSLRAEDTAVYYCARGAGTIYYYGMDVWGQGTTVIVSS
# VL: DIQMTQSPSSVSASVGDRLTITCRASQDISSWLTWYQQKPGKAPNLLIYAASGLQSGVPSRFSGSGSGTDFTLTISNLQPEDFATYYCQQANSFPLTFGQGTRLEIK
# notes: as for B1
# B5: H4H2594S (antibody, human IgG4, V domains shown)
# VH: EVQLVESGGGLVKPGGSLRLSCAASGFTFSDYYMNWIRQAPGKGLEWVSYISSSGSSIYYADSVKGRFTISRDNAKNSLYLLMNSLRAEDTAVYYCARDGKYNSSPGDYWGQGTLVTVSS
# VL: DIQMTQSPSSLSASVGDRVTIACRASQGISNYLAWFQQKPGKAPKSLIYAASSLQSGVPSKFSGSGSGTDFTLTISSLQPEDFATYYCQQYNSYPLTFGGGTKVEIKR
# notes: human IgG4 Fc (H4H prefix)
# B6: H2M1233N (antibody, mouse IgG2, V domains shown)
# VH: QVVLVESGGGVVQPGRSLRLSCAASGFTFSSYGMHWVRQAPGKGLEWVAVIWYDGSNKYYVDSVKGRFTISRDNSNNTIYLQMNSLRAEDTAVYYCARSLIPVAGTDPIFGYWGQGTLVTVSS
# VL: DIQMTQSPSTLSASVGDRVTITCRASQSVSSWLAWYQQKPGKAPKLLIFKASGLESGVPFRFSGSGSGTEFTLTISSLQPDDFATYYCQQYNTYSPTFGQGTKVEIK
# notes: as for B3
# B7: H2M1242N (antibody, mouse IgG2, V domains shown)
# VH: EVQLVESGGGLVRPGGSLRLSCAASGFTFTSYAMNWVRQAPGKGLEWVSSISSYSSYIYIADSVKGRFTLSRDNAKNSLYLQMHSLRPEDTAVYFCAREGYSAYSYFDFWGRGTLVTVSS
# VL: B6 VL with S30I, F49H, K50R, G53S, F60S, S77G, S95F, I106V
# notes: as for B3
# B8: H2M1237N (antibody, mouse IgG2, V domains shown)
# VH: B6 VH with N57I, V61A, S99A
# VL: B6 VL with A51T
# notes: as for B3
# Target: T1, natural Fel d1 (Indoor Biotech, #NA-FD1-2) (cat, UniProt P30438 23-92; P30440 18-109)
# T1 construct: Bought natural heterodimeric glycoprotein, chains linked by disulfide bonds; also called nFel d1; nFel d 1
# T1 sequence (P30438 other isoform, or with tags, fused parts or gaps, chain 1 of 2): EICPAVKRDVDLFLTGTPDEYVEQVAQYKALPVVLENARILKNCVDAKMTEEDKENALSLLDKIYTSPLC
# T1 sequence (P30440 18-109, chain 2 of 2): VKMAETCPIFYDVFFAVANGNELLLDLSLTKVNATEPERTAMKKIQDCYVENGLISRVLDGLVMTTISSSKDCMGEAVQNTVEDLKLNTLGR
# Experiment: SPR (Biacore), mAb captured, natural Fel d1 injected, 25 C;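 note: rate constants obtained by fitting association and dissociation phases to a one-to-one binding model, with Kd and half-life derived from those rate constants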
# Method: Binding associative and dissociative rate constants (kₐ and kd, respectively) and calculated equilibrium dissociation constants and dissociative half-lives (KD and t_{1/2}, respectively) for antigen binding to anti-Fel d1 monoclonal antibodies were determined using a real-time surface plasmon resonance biosensor (Biacore T200 or Biacore 2000) assay. […] Antibody-antigen association was monitored for 3 to 5 minutes, and the dissociation of antigen from the captured monoclonal antibody (in running buffer alone at 25° C.) was monitored for 10 or 15 minutes. Kinetic association (kₐ) and dissociation (kd) rate constants were determined by processing and fitting the data to a 1:1 binding model using Scrubber 2.0 curve fitting software. Binding dissociation equilibrium constants (KD) and dissociative half-lives (t_{1/2}) were calculated from the kinetic rate constants as: KD=kd/kₐ and t_{1/2}=ln(2)/kd.
Binder,Kd [nM],koff [s⁻¹],kon [M⁻¹ s⁻¹],t1/2 [min]
B1,18.3,0.00679,371000,2
B2,3.63,0.000662,182000,17
B3,4.55,0.00142,312000,8
B4,3.37,0.000869,258000,13
B5,0.878,0.000965,1.1e+06,12
B6,1.4,0.000353,253000,33
B7,3.14,0.000604,192000,19
B8,0.982,0.000276,281000,42
